This is an account of results in PMC5887453 (Nucleic Acids Research, 2018).

Where a chain is given by its changes, count along the chain named.

In one test the target is T1, PhoEF-2 K225S (Pyrococcus horikoshii, UniProt O59521 1-732, K225S).
T1 sequence (looked up): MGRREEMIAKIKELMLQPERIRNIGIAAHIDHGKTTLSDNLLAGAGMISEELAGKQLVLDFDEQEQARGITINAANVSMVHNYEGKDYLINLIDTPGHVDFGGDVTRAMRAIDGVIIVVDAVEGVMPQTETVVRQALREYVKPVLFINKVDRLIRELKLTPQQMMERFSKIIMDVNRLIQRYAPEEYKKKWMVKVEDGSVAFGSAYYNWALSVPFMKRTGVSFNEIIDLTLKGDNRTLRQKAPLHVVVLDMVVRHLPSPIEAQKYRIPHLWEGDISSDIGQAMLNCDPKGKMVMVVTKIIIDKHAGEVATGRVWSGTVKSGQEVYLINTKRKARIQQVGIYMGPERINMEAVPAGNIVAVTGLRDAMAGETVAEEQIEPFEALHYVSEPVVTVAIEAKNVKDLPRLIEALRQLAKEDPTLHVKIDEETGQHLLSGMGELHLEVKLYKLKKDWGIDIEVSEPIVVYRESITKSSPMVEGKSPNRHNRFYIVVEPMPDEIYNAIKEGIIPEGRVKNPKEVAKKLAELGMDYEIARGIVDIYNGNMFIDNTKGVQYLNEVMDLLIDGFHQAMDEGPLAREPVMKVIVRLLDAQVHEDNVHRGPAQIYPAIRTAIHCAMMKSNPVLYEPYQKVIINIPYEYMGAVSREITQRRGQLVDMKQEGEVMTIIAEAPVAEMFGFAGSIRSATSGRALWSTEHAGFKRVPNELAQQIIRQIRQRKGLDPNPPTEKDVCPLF
Nature of the test: native gel or EMSA. On the technique in general: Mobility shift assays separate free from complexed probe on a gel.

A further test addresses T2, PhoEF-2 N227S (Pyrococcus horikoshii, UniProt O59521 1-732, N227S).
T2 sequence (looked up): T1 sequence (looked up) with S222K, N224S
Nature of the test: native gel or EMSA.

B1: Pyrococcus horikoshii ribosomal stalk protein P1 (natural protein, UniProt O57705 1-108, looked up)
chain: MEYVYAALLLHSVGKEINEENLKAVLQAAGVEPEEARIKALVAALEGVNIDEVIEKAAMPVAVAAAPAAAPAEAGGEEKKEEEKKEEEEKEEEVSEEEALAGLSALFG
modifications: in the SPR only: biotin on amino groups via a PEG linker (EZ-Link NHS-PEG4-Biotin)
Turning to B1, the binding result with PhoEF-2 K225S and in the test with PhoEF-2 N227S was “binds” in each case.
